T1: murine Tissue Factor in murine brain extracts (murine, UniProt P20352 29-294)
T1 sequence (looked up): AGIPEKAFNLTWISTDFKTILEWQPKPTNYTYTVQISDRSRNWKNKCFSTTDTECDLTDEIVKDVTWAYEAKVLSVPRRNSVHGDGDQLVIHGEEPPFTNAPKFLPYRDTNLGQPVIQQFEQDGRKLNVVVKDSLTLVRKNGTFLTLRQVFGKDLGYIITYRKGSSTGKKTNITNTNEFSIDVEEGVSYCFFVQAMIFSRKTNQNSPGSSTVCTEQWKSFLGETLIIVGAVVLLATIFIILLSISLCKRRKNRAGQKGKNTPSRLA

T2: murine Tissue Factor on B6F10 melanoma cells (murine, UniProt P20352 29-294)
T2 construct: whole, on cells; also called cell-associated mTF
T2 sequence (looked up): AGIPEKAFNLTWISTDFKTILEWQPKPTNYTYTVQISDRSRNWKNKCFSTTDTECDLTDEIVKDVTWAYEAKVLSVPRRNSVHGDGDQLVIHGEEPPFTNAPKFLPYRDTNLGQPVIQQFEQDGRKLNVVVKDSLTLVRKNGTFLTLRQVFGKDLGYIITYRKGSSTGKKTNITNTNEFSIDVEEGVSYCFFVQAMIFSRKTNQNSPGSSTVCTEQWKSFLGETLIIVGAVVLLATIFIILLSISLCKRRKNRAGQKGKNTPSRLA


Legend:
[1] = biological target: T1, murine Tissue Factor in murine brain …; experiment: cell-based or functional assay
[2] = biological target: T2, murine Tissue Factor on B6F10 melanoma …; experiment: FACS on B6F10 melanoma cells that express mTF

EC50 Conc. (ug/ml), inhibition of fibrin clot formation in human plasma with murine brain extracts as source of mTF [1]	EC50 [2]	Binder
0.23 µg/mL	–	PHD126 Fab (Fab, V domains shown) VH: QVQLVQSGAEVKKPGESLKISCKGSYSFSNYWIGWVRQMPGKGLEWMGFIDPDDSDTNYSPSFQGQVTISADKSISTAYLQWSSLKASDTAMYYCARALYMQGGSFDSWGQGTLVTVSS VL: DIELTQPPSVSVAPGQTARISCSGDNLGSYYVSWYQQKPGQAPVLVIYRDTDRPSGIPERFSGSNSGNTATLTISGTQAEDEADYYCQSYDYGVSNQVFGGGTKLTVLG
23.8 µg/mL	–	PHD104 Fab (Fab, V domains shown) VH: QVQLVQSGAEVKKPGESLKISCKGSYSFTSNWIGWVRQMPGKGLEWMGWIYPSDSMTRYSPSFQGQVTISADKSISTAYLQWSSLKASDTAMYYCARYLFGLFDNWGQGTLVTVSS VL: DIELTQPPSVSVAPGQTARISCSGDNLGSYYVSWYQQKPGQAPVLVIYNDNNRPSGIPERFSGSNSGNTATLTISGTQAEDEADYYCATYDSSTDVFGGGTKLTVLG
0.82 µg/mL	4.35 nM	PHD127 Fab (Fab, V domains shown, HuCAL Fab; The assignment of 8 (VH) and 9 (VL) to PHD127 follows the order of listing) VH: QVQLVQSGAEVKKPGESLKISCKGSYSFTNSWISWVRQMPGKGLEWMGIIDPDDSYTSYSPSFQGQVTISADKSISTAYLQWSSLKASDTAMYYCARGAGYGRMFGDVWGQGTLVTVSS VL: DIELTQPPSVSVAPGQTARISCSGDNLGSYYASWYQQKPGQAPVLVIYQDDNRPSGIPERFSGSNSGNTATLTISGTQAEDEADYYCGAYTYSTSWVFGGGTKLTVLG
63.3 µg/mL	–	PHD103 Fab (Fab, V domains shown) VH: QVQLVQSGAEVKKPGESLKISCKGSGYSFSNSWIAWVRQMPGKGLEWMGGIIGPGHSYTKYSPSFQGQVTISADKSISTAYLQWSSLKASDTAMYYCARINMGYFDYWGQGTLVTVSS VL: DIELTQPPSVSVAPGQTARISCSGDSLGLKKFVSWYQQKPGQAPVLVIYDDSNRPSGIPERFSGSNSGNTATLTISGTQAEDEADYYCGTYDQTIGHDVVFGGGTKLTVLG
